Publication PMC9279153, “Structure of the Dicer-2–R2D2 heterodimer bound to a small RNA duplex”

How the values were obtained:
Dicer-2;R2D2 [1] = molecular target: T1, Dicer-2;R2D2 (Drosophila;Drosophila, UniProt A1ZAW0;Q9VLW8 1-1722;1-311, |); test: cryo-EM; two duplexes: one on R2D2 (well resolved), one on Dicer-2 helicase (poorly resolved); Crosslinking: 20 nM siRNA, 40 nM Dicer-2-R2D2, 30 min, >300 nm UV 60 s, buffer not given; structure: 30 mM Hepes-KOH pH 7.4, 100 mM potassium acetate, 2 mM magnesium acetate, 1 mM DTT, 0.02% glycerol, protein:siRNA 1:2 mixed at room temperature; details: protein: recombinant;recombinant; tags: 8xHis (structure prep);3xFlag; copies: 1;1; 19-nt duplex region with U-U mismatch at g1:p19; 3' overhang 2 nt on both strands
T1 sequence (A1ZAW0 whole entry, chain 1 of 2): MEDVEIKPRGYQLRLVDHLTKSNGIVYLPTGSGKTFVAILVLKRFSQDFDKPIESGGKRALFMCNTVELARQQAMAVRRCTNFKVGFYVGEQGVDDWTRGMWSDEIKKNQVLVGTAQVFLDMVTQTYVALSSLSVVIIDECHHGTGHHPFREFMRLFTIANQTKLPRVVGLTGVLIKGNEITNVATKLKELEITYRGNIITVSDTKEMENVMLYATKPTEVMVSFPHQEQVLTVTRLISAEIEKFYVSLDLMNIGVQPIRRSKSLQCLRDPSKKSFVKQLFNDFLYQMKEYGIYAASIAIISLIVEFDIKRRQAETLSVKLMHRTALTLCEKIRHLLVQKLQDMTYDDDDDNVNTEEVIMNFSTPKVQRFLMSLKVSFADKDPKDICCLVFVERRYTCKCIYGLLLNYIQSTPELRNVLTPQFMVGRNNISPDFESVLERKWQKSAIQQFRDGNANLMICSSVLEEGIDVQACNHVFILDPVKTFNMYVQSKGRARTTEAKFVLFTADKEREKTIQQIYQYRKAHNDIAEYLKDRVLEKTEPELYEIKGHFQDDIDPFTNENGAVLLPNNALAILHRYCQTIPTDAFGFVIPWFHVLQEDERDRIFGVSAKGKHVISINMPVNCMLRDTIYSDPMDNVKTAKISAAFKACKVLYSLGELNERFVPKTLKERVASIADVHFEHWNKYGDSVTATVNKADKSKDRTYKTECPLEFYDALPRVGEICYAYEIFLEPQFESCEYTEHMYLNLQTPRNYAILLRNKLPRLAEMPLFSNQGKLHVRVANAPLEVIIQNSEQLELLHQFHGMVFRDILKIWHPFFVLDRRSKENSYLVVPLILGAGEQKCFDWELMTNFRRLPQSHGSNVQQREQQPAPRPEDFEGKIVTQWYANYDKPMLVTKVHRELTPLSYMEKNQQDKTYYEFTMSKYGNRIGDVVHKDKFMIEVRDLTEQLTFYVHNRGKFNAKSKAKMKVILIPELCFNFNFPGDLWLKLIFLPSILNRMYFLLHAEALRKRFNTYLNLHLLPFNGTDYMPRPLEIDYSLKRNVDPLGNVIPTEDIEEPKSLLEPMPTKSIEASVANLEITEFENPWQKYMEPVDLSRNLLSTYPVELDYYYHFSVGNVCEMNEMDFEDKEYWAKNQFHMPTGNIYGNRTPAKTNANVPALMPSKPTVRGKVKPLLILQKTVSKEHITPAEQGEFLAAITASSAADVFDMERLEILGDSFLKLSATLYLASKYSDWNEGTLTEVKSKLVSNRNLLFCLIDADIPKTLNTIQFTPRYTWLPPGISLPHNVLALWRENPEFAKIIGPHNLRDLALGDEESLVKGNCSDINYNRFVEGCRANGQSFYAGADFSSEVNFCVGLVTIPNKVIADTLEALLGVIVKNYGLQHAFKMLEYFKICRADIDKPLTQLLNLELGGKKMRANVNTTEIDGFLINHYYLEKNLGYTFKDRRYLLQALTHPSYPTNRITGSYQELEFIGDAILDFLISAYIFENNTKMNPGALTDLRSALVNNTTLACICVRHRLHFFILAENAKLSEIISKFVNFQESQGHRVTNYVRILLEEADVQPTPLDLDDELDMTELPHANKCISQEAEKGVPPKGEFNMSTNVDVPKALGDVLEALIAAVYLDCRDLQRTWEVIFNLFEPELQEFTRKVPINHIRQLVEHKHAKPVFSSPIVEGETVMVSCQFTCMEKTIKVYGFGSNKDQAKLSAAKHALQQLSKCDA
T1 sequence (chain, as listed by the source |, chain 2 of 2): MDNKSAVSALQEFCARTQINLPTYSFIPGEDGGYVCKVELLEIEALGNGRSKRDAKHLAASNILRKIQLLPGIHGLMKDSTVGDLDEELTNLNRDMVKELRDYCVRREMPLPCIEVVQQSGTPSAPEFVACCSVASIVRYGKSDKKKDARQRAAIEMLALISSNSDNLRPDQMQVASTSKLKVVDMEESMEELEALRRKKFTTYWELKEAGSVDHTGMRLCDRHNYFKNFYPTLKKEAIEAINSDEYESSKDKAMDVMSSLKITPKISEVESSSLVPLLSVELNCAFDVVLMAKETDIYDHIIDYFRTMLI

Dicer-2;R2D2 [2] = molecular target: T1, Dicer-2;R2D2; test: photocrosslinking; g* crosslinks to R2D2; Crosslinking: 20 nM siRNA, 40 nM Dicer-2-R2D2, 30 min, >300 nm UV 60 s, buffer not given; structure: 30 mM Hepes-KOH pH 7.4, 100 mM potassium acetate, 2 mM magnesium acetate, 1 mM DTT, 0.02% glycerol, protein:siRNA 1:2 mixed at room temperature; details: protein: recombinant;recombinant; tags: 8xHis (structure prep);3xFlag; copies: 1;1; 3' overhang 2 nt on both strands
Dicer-2;R2D2 CTD Δα2 = Dicer-2;R2D2 CTD Δα2 (Drosophila;Drosophila, UniProt A1ZAW0;Q9VLW8 1-1722;1-201+=GGGS+215-311, |internal_change); test: photocrosslinking; g* crosslink to R2D2 abolished, g* crosslink to Dicer-2 increased (opposite orientation); Crosslinking: 20 nM siRNA, 40 nM Dicer-2-R2D2, 30 min, >300 nm UV 60 s, buffer not given; structure: 30 mM Hepes-KOH pH 7.4, 100 mM potassium acetate, 2 mM magnesium acetate, 1 mM DTT, 0.02% glycerol, protein:siRNA 1:2 mixed at room temperature; details: protein: recombinant;recombinant; tags: 8xHis (structure prep);3xFlag; copies: 1;1; 3' overhang 2 nt on both strands
Chain of Dicer-2;R2D2 CTD Δα2 (A1ZAW0 whole entry, stated change not applied, chain 1 of 2): as the sequence (A1ZAW0 whole entry, chain 1 of 2) above
Chain of Dicer-2;R2D2 CTD Δα2 (chain, as listed by the source | | mutant, chain 2 of 2): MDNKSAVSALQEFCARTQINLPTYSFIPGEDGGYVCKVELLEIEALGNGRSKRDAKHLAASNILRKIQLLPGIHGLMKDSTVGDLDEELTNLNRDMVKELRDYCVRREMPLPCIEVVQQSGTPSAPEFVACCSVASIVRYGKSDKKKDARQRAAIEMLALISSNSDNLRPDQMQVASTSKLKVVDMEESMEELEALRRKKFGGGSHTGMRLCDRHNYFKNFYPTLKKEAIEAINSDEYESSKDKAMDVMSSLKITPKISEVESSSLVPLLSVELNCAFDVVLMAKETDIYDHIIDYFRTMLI

Dicer-2;R2D2 K98A = Dicer-2;R2D2 K98A (Drosophila;Drosophila, UniProt A1ZAW0;Q9VLW8 1-1722;1-311, |K98A); test: photocrosslinking; g* crosslinking not affected by K98A; Crosslinking: 20 nM siRNA, 40 nM Dicer-2-R2D2, 30 min, >300 nm UV 60 s, buffer not given; structure: 30 mM Hepes-KOH pH 7.4, 100 mM potassium acetate, 2 mM magnesium acetate, 1 mM DTT, 0.02% glycerol, protein:siRNA 1:2 mixed at room temperature; details: protein: recombinant;recombinant; tags: 8xHis (structure prep);3xFlag; copies: 1;1; 3' overhang 2 nt on both strands
Chain of Dicer-2;R2D2 K98A (A1ZAW0 whole entry, chain 1 of 2): as the sequence (A1ZAW0 whole entry, chain 1 of 2) above
Chain of Dicer-2;R2D2 K98A (chain, as listed by the source |K98A | K98A K98A, chain 2 of 2): as the sequence (chain, as listed by the source |, chain 2 of 2) above, with K98A counted along it

Dicer-2;R2D2 [3] = molecular target: T1, Dicer-2;R2D2; test: photocrosslinking; crosslinks to R2D2, similar to 2-nt overhang; Crosslinking: 20 nM siRNA, 40 nM Dicer-2-R2D2, 30 min, >300 nm UV 60 s, buffer not given; structure: 30 mM Hepes-KOH pH 7.4, 100 mM potassium acetate, 2 mM magnesium acetate, 1 mM DTT, 0.02% glycerol, protein:siRNA 1:2 mixed at room temperature; details: protein: recombinant;recombinant; tags: 8xHis (structure prep);3xFlag; copies: 1;1; U-U mismatch at nt 1 of strand 1
Dicer-2;R2D2 [4] = molecular target: T1, Dicer-2;R2D2; test: photocrosslinking; crosslinks to R2D2; Crosslinking: 20 nM siRNA, 40 nM Dicer-2-R2D2, 30 min, >300 nm UV 60 s, buffer not given; structure: 30 mM Hepes-KOH pH 7.4, 100 mM potassium acetate, 2 mM magnesium acetate, 1 mM DTT, 0.02% glycerol, protein:siRNA 1:2 mixed at room temperature; details: protein: recombinant;recombinant; tags: 8xHis (structure prep);3xFlag; copies: 1;1; 3' overhang 2 nt on strand 2; U-U mismatch at nt 1 of strand 1

B1: let-7 siRNA duplex (guide/passenger) (dsRNA)
RNA 1: UGAGGUAGUAGGUUGUAUAGU
RNA 2: UAUACAACCUACUACCUCUCU
modifications: 5'-phosphate (passenger p1)
B1: binds (Dicer-2;R2D2 [1]).

B2: g* siRNA, 2-nt overhang (siRNA-1/siRNA-2) (dsRNA)
RNA 1: UGAGGUAGUAGGUUGUAUAUU
RNA 2: UAUACAACCUACUACCUCUUU
modifications: 5-iodouracil at position 20 of strand 1 (written as U)
B2: binds (Dicer-2;R2D2 [2]); binds (Dicer-2;R2D2 CTD Δα2); binds (Dicer-2;R2D2 K98A).

B3: g* siRNA, 1-nt overhang (siRNA-4/siRNA-2) (dsRNA)
RNA 1: UGAGGUAGUAGGUUGUAUAU
RNA 2: UAUACAACCUACUACCUCUUU
modifications: 5-iodouracil at position 20 of strand 1 (written as U)
B3: binds (Dicer-2;R2D2 [3]).

B4: g* siRNA, blunt stable end (siRNA-4/siRNA-5) (dsRNA)
RNA 1: UGAGGUAGUAGGUUGUAUAU
RNA 2: AUAUACAACCUACUACCUCUUU
modifications: 5-iodouracil at position 20 of strand 1 (written as U)
B4: binds (Dicer-2;R2D2 [4]).
